Laboratory results: publication PMC6039487

Experiments:
[1] = biological target: MC4R(L328Ter), expressed from mCherry-2A-MC4R (human) (UniProt P32245)
[2] = biological target: MC4R(C319Ter), expressed from mCherry-2A-MC4R (human) (UniProt P32245)
[3] = biological target: wild-type MC4R (melanocortin 4 receptor), expressed from mCherry-2A-MC4R (human) (UniProt P32245)

EC50 of α-MSH induced cAMP production, pGloSensor luciferase cAMP assay in transfected HEK293 cells (dose-response, 10 min stimulation) [1]: 3.3 nM
EC50 of α-MSH induced cAMP production, pGloSensor luciferase cAMP assay in transfected HEK293 cells (dose-response, 10 min stimulation) [2]: 2.7 nM
EC50 of α-MSH induced cAMP production, pGloSensor luciferase cAMP assay in transfected HEK293 cells (dose-response, 10 min stimulation) [3]: 2.5 nM
Substance: α-MSH (peptide)
